T1: human BCMA on Flp-inCHO-human BCMA cells (human, UniProt Q02223 1-184)
T1 construct: whole, on cells
T1 sequence (looked up): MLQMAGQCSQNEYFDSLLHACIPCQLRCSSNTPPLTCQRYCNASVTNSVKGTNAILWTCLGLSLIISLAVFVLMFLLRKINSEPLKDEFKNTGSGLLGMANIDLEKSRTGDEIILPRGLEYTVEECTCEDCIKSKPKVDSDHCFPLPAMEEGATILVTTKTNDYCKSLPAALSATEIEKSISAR


What was measured:
[1] = biological target: T2, human CD3 on Jurkat cells and on activated human PBMC (human, UniProt P07766 23-207; P04234 22-171); assay: FACS, Jurkat cells
T2 construct: whole, on cells; Endogenous CD3 of the T cell receptor complex on cells

[2] = biological target: T2, human CD3 on Jurkat cells and on …; assay: FACS, activated human PBMC
[3] = biological target: T3, monkey CD3 on activated monkey PBMC (monkey); assay: FACS, activated monkey PBMC
T3 construct: whole, on cells

[4] = biological target: T4, human GPRC5D on CHOK1-human GPRC5D cells (human, UniProt Q9NZD1 1-345); assay: FACS, CHOK1-human GPRC5D cells
T4 construct: whole, on cells

[5] = biological target: T1, human BCMA on Flp-inCHO-human BCMA cells; assay: FACS, Flp-inCHO-human BCMA cells
[6] = biological target: T1, human BCMA on Flp-inCHO-human BCMA cells; assay: FACS, Flp-inCHO-human BCMA cells; remark: listed apart in the source

T3 sequence (Q95LI5 22-198): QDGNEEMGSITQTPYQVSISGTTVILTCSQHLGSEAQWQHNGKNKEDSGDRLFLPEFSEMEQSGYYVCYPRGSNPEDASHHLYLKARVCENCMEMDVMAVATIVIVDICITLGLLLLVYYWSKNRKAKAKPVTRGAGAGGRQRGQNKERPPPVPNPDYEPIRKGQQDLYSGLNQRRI
T4 sequence (Q9NZD1 whole entry): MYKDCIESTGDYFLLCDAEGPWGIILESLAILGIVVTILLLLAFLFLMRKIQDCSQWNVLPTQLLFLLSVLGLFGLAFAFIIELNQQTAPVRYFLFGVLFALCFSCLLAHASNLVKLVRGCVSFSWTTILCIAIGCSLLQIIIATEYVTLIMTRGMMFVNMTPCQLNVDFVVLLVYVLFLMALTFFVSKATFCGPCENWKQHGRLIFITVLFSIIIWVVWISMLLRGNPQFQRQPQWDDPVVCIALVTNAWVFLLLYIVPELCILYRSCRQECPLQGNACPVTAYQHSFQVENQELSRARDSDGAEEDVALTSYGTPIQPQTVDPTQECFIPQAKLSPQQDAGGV
T2 sequence (P07766 23-207, chain 1 of 2): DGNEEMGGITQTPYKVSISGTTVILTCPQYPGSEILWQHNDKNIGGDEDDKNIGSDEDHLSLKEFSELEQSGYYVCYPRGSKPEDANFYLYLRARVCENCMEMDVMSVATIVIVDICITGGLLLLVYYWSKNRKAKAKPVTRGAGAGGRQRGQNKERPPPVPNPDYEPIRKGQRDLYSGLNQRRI
T2 sequence (P04234 22-171, chain 2 of 2): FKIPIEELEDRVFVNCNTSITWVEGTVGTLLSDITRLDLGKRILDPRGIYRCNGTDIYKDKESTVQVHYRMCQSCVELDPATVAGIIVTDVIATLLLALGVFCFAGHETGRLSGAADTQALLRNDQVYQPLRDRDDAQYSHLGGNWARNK

Row | Binder | Maximum mean fluorescence intensity [1] | EC50 [2] | Maximum mean fluorescence intensity [2] | Maximum mean fluorescence intensity [3] | EC50 [4] | EC50 [5] | EC50 [1] | EC50 [3] | binding result [6]
1 | Tri-35 (trispecific antibody, V domains shown) VHH: EVQLVESGGGLVQPGGSLRLSCSASGFTLDYYMIGWFRQAPGKEREGLSSISPADGSTYYADSVKGRFTISRDSSKNTVYLQMNSLRAEDTAVYYCAAGNEATISWGFGPWEYDYWGQGTMVTVSS VH 1: EVQLVQSGAEVKKPGSSVKVSCKASGYTFTSYGISWVRQAPGQGLEWMGEIYPRSGNTYYNEKFKGRVTLTADKSTSTAYMELSSLRSEDTAVYYCARGRAYGRNYPMDYWGQGTTVTVSS VL 1: EIVLTQSPATLSLSPGERATLSCRASQSIGTSIHWYQQKPGQSPRLLIKYASESISGIPARFSGSGSGTDFTLTISSLEPEDFAVYYCQQSNSWPYTFGGGTKVEIK VH 2: EVQLVESGGGVVQPGRSLRLSCAASGFTFTDYYMSWVRQAPGKGLEWVAMSRNKAKGHTIEYSSSVKGRFTISRDNSKNTLYLQMNSLRAEDTAVYYCARDTYESYDGYFDVWGQGTTVTVSS VL 2: DIVMTQSPDSLAVSLGERATINCKSSQSLFNSRSRKNYLAWYQQKPGQTPKLLIYWASIRESGVPDRFSGSGSGTDFTLTISSLQAEDVAVYYCKQSYYLYTFGQGTKLEIK | 320 | 81.4 nM | 2240 | 1970 | 1.78 nM | 2.53 nM |  |  | 
2 | Tri-32 (trispecific antibody, V domains shown) VHH: EVQLVESGGGLVQPGGSLRLSCSASGFTLDYYMIGWFRQAPGKEREGLSSISPADGSTYYADSVKGRFTISRDSSKNTVYLQMNSLRAEDTAVYYCAAGNEATISWGFGPWEYDYWGQGTMVTVSS VH 1: EVQLVQSGAEVKKPGSSVKVSCKASGYTFTSYGISWVRQAPGQGLEWMGEIYPRSGNTYYNEKFKGRVTLTADKSTSTAYMELSSLRSEDTAVYYCARGRAYGRNYPMDYWGQGTTVTVSS VL 1: EIVLTQSPATLSLSPGERATLSCRASQSIGTSIHWYQQKPGQSPRLLIKYASESISGIPARFSGSGSGTDFTLTISSLEPEDFAVYYCQQSNSWPYTFGGGTKVEIK VH 2: EVQLVESGGGVVQPGRSLRLSCAASGFTFTDYYMSWVRQAPGKGLEWVAMSRNKAKGHTIEYSSSVKGRFTISRDNSKNTLYLQMNSLRAEDTAVYYCARDTYESYDGYFDVWGQGTTVTVSS VL 2: DIVMTQSPDSLAVSLGERATINCKSSQSLFNSRSRKNYLAWYQQKPGQTPKLLIYWASIRESGVPDRFSGSGSGTDFTLTISSLQAEDVAVYYCKQSYYLYTFGQGTKLEIK | 3120 |  | 1780 | 1680 | 3.06 nM | 2.03 nM | 370 nM |  | 
3 | Tri-49 (trispecific antibody, V domains shown) VHH: EVQLVESGGGLVQPGGSLRLSCAASESISSIHIMAWYRQAPGKQRELVAGIRNDGSTVYVDSVKGRFTISRDNAKNSLYLQMNSLRAEDTAVYYCNADQGFGSYSEWERRSRWGQGTTVTVSS VH 1: EVQLVQSGAEVKKPGSSVKVSCKASGYTFTSYGISWVRQAPGQGLEWMGEIYPRSGNTYYNEKFKGRVTLTADKSTSTAYMELSSLRSEDTAVYYCARGRAYGRNYPMDYWGQGTTVTVSS VL 1: EIVLTQSPATLSLSPGERATLSCRASQSIGTSIHWYQQKPGQSPRLLIKYASESISGIPARFSGSGSGTDFTLTISSLEPEDFAVYYCQQSNSWPYTFGGGTKVEIK VH 2: EVQLVESGGGVVQPGRSLRLSCAASGFTFTDYYMSWVRQAPGKGLEWVAMSRNKAKGHTIEYSSSVKGRFTISRDNSKNTLYLQMNSLRAEDTAVYYCARDTYESYDGYFDVWGQGTTVTVSS VL 2: DIVMTQSPDSLAVSLGERATINCKSSQSLFNSRSRKNYLAWYQQKPGQTPKLLIYWASIRESGVPDRFSGSGSGTDFTLTISSLQAEDVAVYYCKQSYYLYTFGQGTKLEIK | 795 | 31.8 nM | 1730 | 1380 | 2.75 nM | 1.34 nM | 157 nM | 59.4 nM | 
4 | Tri-55 (trispecific antibody, V domains shown) VHH: EVQLVESGGGLVQPGGSLRLSCAASESISSIHIMAWYRQAPGKQRELVAGIRNDGSTVYVDSVKGRFTISRDNAKNSLYLQMNSLRAEDTAVYYCNADQGFGSYSEWERRSRWGQGTTVTVSS VH 1: EVQLVQSGAEVKKPGSSVKVSCKASGYTFTSYGISWVRQAPGQGLEWMGEIYPRSGNTYYNEKFKGRVTLTADKSTSTAYMELSSLRSEDTAVYYCARGRAYGRNYPMDYWGQGTTVTVSS VL 1: EIVLTQSPATLSLSPGERATLSCRASQSIGTSIHWYQQKPGQSPRLLIKYASESISGIPARFSGSGSGTDFTLTISSLEPEDFAVYYCQQSNSWPYTFGGGTKVEIK VH 2: EVQLVESGGGVVQPGRSLRLSCAASGFTFTDYYMSWVRQAPGKGLEWVAMSRNKAKGHTIEYSSSVKGRFTISRDNSKNTLYLQMNSLRAEDTAVYYCARDTYESYDGYFDVWGQGTTVTVSS VL 2: DIVMTQSPDSLAVSLGERATINCKSSQSLFNSRSRKNYLAWYQQKPGQTPKLLIYWASIRESGVPDRFSGSGSGTDFTLTISSLQAEDVAVYYCKQSYYLYTFGQGTKLEIK | 4690 | 149 nM | 2260 | 2030 | 6.26 nM | 0.92 nM | 179 nM | 159 nM | 
5 | Tri-41 (trispecific antibody, V domains shown) VHH: EVQLVESGGGLVQPGGSLRLSCSASGFTLDYYMIGWFRQAPGKEREGLSSISPADGSTYYADSVKGRFTISRDSSKNTVYLQMNSLRAEDTAVYYCAAGNEATISWGFGPWEYDYWGQGTMVTVSS VH 1: EVQLVQSGAEVKKPGSSVKVSCKASGYTFTSYGISWVRQAPGQGLEWMGEIYPRSGNTYYNEKFKGRVTLTADKSTSTAYMELSSLRSEDTAVYYCARGRAYGRNYPMDYWGQGTTVTVSS VL 1: EIVLTQSPATLSLSPGERATLSCRASQSIGTSIHWYQQKPGQSPRLLIKYASESISGIPARFSGSGSGTDFTLTISSLEPEDFAVYYCQQSNSWPYTFGGGTKVEIK VH 2: EVQLVESGGGVVQPGRSLRLSCAASGFTFTDYYMSWVRQAPGKGLEWVAMSRNKAKGHTIEYSSSVKGRFTISRDNSKNTLYLQMNSLRAEDTAVYYCARDTYESYDGYFDVWGQGTTVTVSS VL 2: DIVMTQSPDSLAVSLGERATINCKSSQSLFNSRSRKNYLAWYQQKPGQTPKLLIYWASIRESGVPDRFSGSGSGTDFTLTISSLQAEDVAVYYCKQSYYLYTFGQGTKLEIK | 85 |  | 235 | 417 | 4.3 nM | 1.52 nM |  |  | 
6 | REGN5459-anti-BCMA-hIgG1 (antibody, V domains shown) VH: EVQLVESGGGLVQPGGSLRLSCAASGFTFSNFWMTWVRQAPGKGLEWVANMNQDGSEKYYVDSVKGRFTISRDNAKSSLYLQMNSLRAEDTAVYYCARDREYCISTSCYDDFDYWGQGTLVTVSS VL: not shown |  |  |  |  |  |  |  |  | binds
